Assay results as given in patent US20170355775A1 (ELANCO TIERGESUNDHEIT, published 2017).

B1: chimeric anti-canine CD20 antibody 1E4-cIgGB (antibody, V domains shown)
VH: EVQLVESGGGLVKPGGSLKLSCAASGFTFSDYGMLWVRQAPEKGLEWIAYISSGSSTIYYADRVKGRFTISRDNAKNTLFLQMTSLRSEDTAMYYCSTGTFAYWGQGTPVTVSS
VL: DVVMTQNPLSLPVSLGDQASISCRSSQSLIYNNGNTYLHWYRQKPGQSPKLLIYKVSNRFSGVPDRFSGSGSGTDFTLKISRVEAEDLGVYFCSQSTHVPFTFGSGTKLEIKR
notes: also called unmodified (WT) 1E4-cIgGB; 1E4-cIGB
B2: 1E4-cIgGB with G34 to E substitution in VL (antibody, V domains shown)
VH: EVQLVESGGGLVKPGGSLKLSCAASGFTFSDYGMLWVRQAPEKGLEWIAYISSGSSTIYYADRVKGRFTISRDNAKNTLFLQMTSLRSEDTAMYYCSTGTFAYWGQGTPVTVSS
VL: DVVMTQNPLSLPVSLGDQASISCRSSQSLIYNNENTYLHWYRQKPGQSPKLLIYKVSNRFSGVPDRFSGSGSGTDFTLKISRVEAEDLGVYFCSQSTHVPFTFGSGTKLEIKR
notes: Whole antibody (heavy plus light chains) made 'using the above procedures'
B3: 1E4-cIgGB with G34 to F substitution in VL (antibody, V domains shown)
VH: EVQLVESGGGLVKPGGSLKLSCAASGFTFSDYGMLWVRQAPEKGLEWIAYISSGSSTIYYADRVKGRFTISRDNAKNTLFLQMTSLRSEDTAMYYCSTGTFAYWGQGTPVTVSS
VL: DVVMTQNPLSLPVSLGDQASISCRSSQSLIYNNFNTYLHWYRQKPGQSPKLLIYKVSNRFSGVPDRFSGSGSGTDFTLKISRVEAEDLGVYFCSQSTHVPFTFGSGTKLEIKR
notes: as for B2
B4: 1E4-cIgGB with G34 to H substitution in VL (antibody, V domains shown)
VH: EVQLVESGGGLVKPGGSLKLSCAASGFTFSDYGMLWVRQAPEKGLEWIAYISSGSSTIYYADRVKGRFTISRDNAKNTLFLQMTSLRSEDTAMYYCSTGTFAYWGQGTPVTVSS
VL: DVVMTQNPLSLPVSLGDQASISCRSSQSLIYNNHNTYLHWYRQKPGQSPKLLIYKVSNRFSGVPDRFSGSGSGTDFTLKISRVEAEDLGVYFCSQSTHVPFTFGSGTKLEIKR
notes: as for B2
B5: 1E4-cIgGB with G34 to I substitution in VL (antibody, V domains shown)
VH: EVQLVESGGGLVKPGGSLKLSCAASGFTFSDYGMLWVRQAPEKGLEWIAYISSGSSTIYYADRVKGRFTISRDNAKNTLFLQMTSLRSEDTAMYYCSTGTFAYWGQGTPVTVSS
VL: DVVMTQNPLSLPVSLGDQASISCRSSQSLIYNNINTYLHWYRQKPGQSPKLLIYKVSNRFSGVPDRFSGSGSGTDFTLKISRVEAEDLGVYFCSQSTHVPFTFGSGTKLEIKR
notes: as for B2
B6: 1E4-cIgGB with G34 to L substitution in VL (antibody, V domains shown)
VH: EVQLVESGGGLVKPGGSLKLSCAASGFTFSDYGMLWVRQAPEKGLEWIAYISSGSSTIYYADRVKGRFTISRDNAKNTLFLQMTSLRSEDTAMYYCSTGTFAYWGQGTPVTVSS
VL: DVVMTQNPLSLPVSLGDQASISCRSSQSLIYNNLNTYLHWYRQKPGQSPKLLIYKVSNRFSGVPDRFSGSGSGTDFTLKISRVEAEDLGVYFCSQSTHVPFTFGSGTKLEIKR
notes: as for B2
B7: 1E4-cIgGB with G34 to P substitution in VL (antibody, V domains shown)
VH: EVQLVESGGGLVKPGGSLKLSCAASGFTFSDYGMLWVRQAPEKGLEWIAYISSGSSTIYYADRVKGRFTISRDNAKNTLFLQMTSLRSEDTAMYYCSTGTFAYWGQGTPVTVSS
VL: DVVMTQNPLSLPVSLGDQASISCRSSQSLIYNNPNTYLHWYRQKPGQSPKLLIYKVSNRFSGVPDRFSGSGSGTDFTLKISRVEAEDLGVYFCSQSTHVPFTFGSGTKLEIKR
notes: as for B2
B8: 1E4-cIgGB with G34 to R substitution in VL (antibody, V domains shown)
VH: EVQLVESGGGLVKPGGSLKLSCAASGFTFSDYGMLWVRQAPEKGLEWIAYISSGSSTIYYADRVKGRFTISRDNAKNTLFLQMTSLRSEDTAMYYCSTGTFAYWGQGTPVTVSS
VL: DVVMTQNPLSLPVSLGDQASISCRSSQSLIYNNRNTYLHWYRQKPGQSPKLLIYKVSNRFSGVPDRFSGSGSGTDFTLKISRVEAEDLGVYFCSQSTHVPFTFGSGTKLEIKR
notes: as for B2
B9: 1E4-cIgGB with G34 to V substitution in VL (antibody, V domains shown)
VH: EVQLVESGGGLVKPGGSLKLSCAASGFTFSDYGMLWVRQAPEKGLEWIAYISSGSSTIYYADRVKGRFTISRDNAKNTLFLQMTSLRSEDTAMYYCSTGTFAYWGQGTPVTVSS
VL: DVVMTQNPLSLPVSLGDQASISCRSSQSLIYNNVNTYLHWYRQKPGQSPKLLIYKVSNRFSGVPDRFSGSGSGTDFTLKISRVEAEDLGVYFCSQSTHVPFTFGSGTKLEIKR
notes: as for B2
B10: 1E4-cIgGB with G34 to Y substitution in VL (antibody, V domains shown)
VH: EVQLVESGGGLVKPGGSLKLSCAASGFTFSDYGMLWVRQAPEKGLEWIAYISSGSSTIYYADRVKGRFTISRDNAKNTLFLQMTSLRSEDTAMYYCSTGTFAYWGQGTPVTVSS
VL: DVVMTQNPLSLPVSLGDQASISCRSSQSLIYNNYNTYLHWYRQKPGQSPKLLIYKVSNRFSGVPDRFSGSGSGTDFTLKISRVEAEDLGVYFCSQSTHVPFTFGSGTKLEIKR
notes: as for B2
B11: 1E4-cIgGB with N33 to A substitution in VL (antibody, V domains shown)
VH: EVQLVESGGGLVKPGGSLKLSCAASGFTFSDYGMLWVRQAPEKGLEWIAYISSGSSTIYYADRVKGRFTISRDNAKNTLFLQMTSLRSEDTAMYYCSTGTFAYWGQGTPVTVSS
VL: DVVMTQNPLSLPVSLGDQASISCRSSQSLIYNAGNTYLHWYRQKPGQSPKLLIYKVSNRFSGVPDRFSGSGSGTDFTLKISRVEAEDLGVYFCSQSTHVPFTFGSGTKLEIKR
notes: as for B2
B12: 1E4-cIgGB with N33 to E substitution in VL (antibody, V domains shown)
VH: EVQLVESGGGLVKPGGSLKLSCAASGFTFSDYGMLWVRQAPEKGLEWIAYISSGSSTIYYADRVKGRFTISRDNAKNTLFLQMTSLRSEDTAMYYCSTGTFAYWGQGTPVTVSS
VL: DVVMTQNPLSLPVSLGDQASISCRSSQSLIYNEGNTYLHWYRQKPGQSPKLLIYKVSNRFSGVPDRFSGSGSGTDFTLKISRVEAEDLGVYFCSQSTHVPFTFGSGTKLEIKR
notes: as for B2
B13: 1E4-cIgGB with N33 to F substitution in VL (antibody, V domains shown)
VH: EVQLVESGGGLVKPGGSLKLSCAASGFTFSDYGMLWVRQAPEKGLEWIAYISSGSSTIYYADRVKGRFTISRDNAKNTLFLQMTSLRSEDTAMYYCSTGTFAYWGQGTPVTVSS
VL: DVVMTQNPLSLPVSLGDQASISCRSSQSLIYNFGNTYLHWYRQKPGQSPKLLIYKVSNRFSGVPDRFSGSGSGTDFTLKISRVEAEDLGVYFCSQSTHVPFTFGSGTKLEIKR
notes: as for B2
B14: 1E4-cIgGB with N33 to H substitution in VL (antibody, V domains shown)
VH: EVQLVESGGGLVKPGGSLKLSCAASGFTFSDYGMLWVRQAPEKGLEWIAYISSGSSTIYYADRVKGRFTISRDNAKNTLFLQMTSLRSEDTAMYYCSTGTFAYWGQGTPVTVSS
VL: DVVMTQNPLSLPVSLGDQASISCRSSQSLIYNHGNTYLHWYRQKPGQSPKLLIYKVSNRFSGVPDRFSGSGSGTDFTLKISRVEAEDLGVYFCSQSTHVPFTFGSGTKLEIKR
notes: as for B2
B15: 1E4-cIgGB with N33 to I substitution in VL (antibody, V domains shown)
VH: EVQLVESGGGLVKPGGSLKLSCAASGFTFSDYGMLWVRQAPEKGLEWIAYISSGSSTIYYADRVKGRFTISRDNAKNTLFLQMTSLRSEDTAMYYCSTGTFAYWGQGTPVTVSS
VL: DVVMTQNPLSLPVSLGDQASISCRSSQSLIYNIGNTYLHWYRQKPGQSPKLLIYKVSNRFSGVPDRFSGSGSGTDFTLKISRVEAEDLGVYFCSQSTHVPFTFGSGTKLEIKR
notes: as for B2
B16: 1E4-cIgGB with N33 to L substitution in VL (antibody, V domains shown)
VH: EVQLVESGGGLVKPGGSLKLSCAASGFTFSDYGMLWVRQAPEKGLEWIAYISSGSSTIYYADRVKGRFTISRDNAKNTLFLQMTSLRSEDTAMYYCSTGTFAYWGQGTPVTVSS
VL: DVVMTQNPLSLPVSLGDQASISCRSSQSLIYNLGNTYLHWYRQKPGQSPKLLIYKVSNRFSGVPDRFSGSGSGTDFTLKISRVEAEDLGVYFCSQSTHVPFTFGSGTKLEIKR
notes: as for B2

Target: T1, canine CD20 ECD2 peptide (canine)
T1 peptide: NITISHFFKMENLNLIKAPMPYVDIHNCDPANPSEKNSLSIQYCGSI
Experiment: ELISA on canine CD20 ECD2 peptide

Binder | binding result
B1 | binds
B2 | binds
B3 | binds
B4 | binds
B5 | binds
B6 | binds
B7 | binds
B8 | binds
B9 | binds
B10 | binds
B11 | binds
B12 | binds
B13 | binds
B14 | binds
B15 | binds
B16 | binds
